Laboratory results taken from the nanobody polyreactivity screen of Harvey et al. (2022).

Assay: yeast display, Sf9 membrane polyspecificity reagent, FACS + sequencing; frameworks hold sequencing errors
Outline: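 A nanobody's polyreactivity label depends on the gate it was sorted from. Yeast display cells were stained with 10% biotinylated, detergent-solubilized Sf9 membrane reagent for 1 hour at 4 °C, enriched on streptavidin microbeads and sorted by FACS. The low and high (top ~1%) gates were set on anti-HA fluorescence for expression and streptavidin fluorescence for reagent binding.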

Sequence	polyreactivity (PSR sort gate)
QVQLEESGGGLVQAGGSLRLSCAASGRIFGGYAMGWYRQAPGKERELVAAISRNGGNTYYADSVKGRFTISRDNAKNTVYLQMNSLKPEDTAVYYCAATYDGTYDYWGQGTQVTVSS	high polyreactivity
QVQLVESGGGLVQAGGILRLSCAASGRTFMYYAMGWYRQAPGKDMELVAAIRRGSSTYYADSVKGRFTISRDNAKYSVYLQMNSLKPEDTAVYYCAARGRYRIGQGRYGKRYDYWGHGTQVTVSS	high polyreactivity
QVQLVESGGGLVQAGGSLRLSCAASGFTFSTNAMGWYRQAPGKERELVAAISRGGSTNYADSVKGRFTISRDIAKNTVYLQMNSLKPEDTAVYYCNAYQSPDEEEYYWGQGTQVTVSS	low polyreactivity
QVQLVESGGGLVQAGGSLRLSCAASVFIFGYNAMGWYRQAPGKERELVAAISSSGGSTYYADSVKGRFTISRDNAKNTVYLQMNSLKPEDTAVYYCAARPVALRKYDYWGQGTQVTVSS	low polyreactivity
QVQLVESGGGLVQAGGSLRLSCAASGRTFKGYVMGWYRQAPGKERELVAAITYGGGSTYYADSVKGRFTISRDNAKNTVYLQMNSLKPEDTAVYYCAADSIYGTKYDYWGQGTQVTVSS	high polyreactivity
QVQLVESGGGLVQAGGSLRLSCAASGGIYYSNAMGWYRQAPGKERELVAAISRDGTITYYADSEKGRFTSSRDNAKNTVYLQMNSLKPEDTAVYSCASDPSIPSWYSIYVYWGQGTQVTVSS	high polyreactivity
QVQLVESGGGLVQAGGSLRLSCAPSGRSFASYAMGWYRQAPGKERELVAAISKSGGRTYYADSVKGRFTISRDNAKNTVYLQMNSLKPEDTAVYYCAAYFWTRSGTPNYDYWGQGTQVTVSS	high polyreactivity
QVQLVESGGGLVQAGGSLRLSCAASGFTFKTNAMGWYRQAPGKERELVAAITSGGSTNYADSVKGRFTISRDNAKNTVYLQMNSLKPVDPAVYYCAADYGVWSEYAGWHAAFDYWGQGTQVTVSS	low polyreactivity
QVQLVESCGGLVQAGGSLRLSCAASGRTFSLYTMGWYRQAPGKERELVATIRSRGGSTYYADSVKGRFTISRDNAKNTFYLQMNSLIPEDTAVYYCATVLRGPFLGWHGGPMYHWGQGTQVTVSS	low polyreactivity
QVQLVESGGGLVQAGGSLRLSCAASGSIFSQYAMGWYRPAPGKERELVAAISRSGGRTSYADSVKGRFTISRDNAKNTVYLQMNSLKPEDTAVYYCAARGPTNMGYWGQGTQVTVSS	high polyreactivity
QVQLVESGGVLVQAGGSLRLSCAASGSIFVYYGMGWYRQAPGKEREFVAAIWTGGSTYYADSVKGRFTISRDNAKNTVYLQMNSLKPEDTAVYYCAADRRGSHYYRYKYGYWGQGTQVTVSS	high polyreactivity
QVQLVESGGGLVQAGGSLRLSCAASGITFKSYTMGWYRQAPGKERELVAAITASGGTTRYADSVKGRFTISRDNAKNTVYLQMNSLKREDTAVYYCNALPFRYGKRRGYWGQGTQVTVSS	low polyreactivity
QVHLVESGGGLVQAGGSLRLSCAASGRTFKYYAMGWYRQAPGKERELVAAISSRGGSTYYADSVKGRFTISRDNAKNTVYLQMNSLKPEDTAVYYCAKGTYLSTSTVANDYWGQGTQGTVSS	high polyreactivity
QVQLVESGGGLVKAGGSLRLSCAASGSIFGSYAMGWYRQAPGKERSTYYADSVKGRFTISRDNAKNTVYLQMNSLKPEDTAVYYRAADTYGYQGSAGGHWGLGTQVTVSS	low polyreactivity
QVQLVESGGGLVQAGGSLRLSCAASGRIVKANAMGWYRQAPGKERELVAAIRESGGTTYYADSVKGRFTISRDNATNTVYLQMNSLKPEDTAVYYCAAAYRDTQYNYYYWGQGTQVTVSS	high polyreactivity
QVQLVESGGGLVQAGGSLRLSCAATGITFEGYAMGWYRQAPGKERELVAAIRSSGTSTYYADSVKGRFTISRDNAKNTVYLQMNSLKPEDTAVYYCNRARSSSRYDYCGQGTQVTVSS	low polyreactivity
QVQLVESGGGLVQAGGSLRLSCAASGRIFFVYAMGWYRQAPGKERELVAAISVSDVSTSYADSVKGRFTISRDNAKNTVYLQMNSLKPEDTAVYYFNAGFRFYTYSRIAGEDYGGQGTQVTVSS	low polyreactivity
QVQLVESGGGLVQAGGSLRLSCAASGRTFWTNAMGWYRQAPGKERELVASINWSGGGTYYADSVKGRFTISRDNAKNTVYLQMNSLKPEDTAVYYCNVYSNPEKEYEYWGQGTQVTVSS	low polyreactivity
QVQLVESGGGLVQAGGSLRLSCAASGSTFPNYAMGWYRQAPGKERELVASISVTTGSTYYADSVKGRFTISRDYAKNTVYLQMNSLKPEDTAVYYCAKRTSSRKFRGAYNYWGQGTQVTVST	high polyreactivity
QVHLVESGGGLVQAGGSLRLSCAASGITFNSYAMGWYRQAPGKERDLDASISWIGGSTYYADSVKGRFTISRDNAKNTVYLQINSLKPDDTAVYYCAVDKGTDYYYDVDYWGQGTQVTVSS	low polyreactivity
QVQLVESGGGLVQAGGSLRLSCAASGSIFRGYVRGWYRQAPGKERELVAAITWSTGSTYYADSVKGRFTISRDNAKNTVYLQMNSLKPEDTAVYYCAAVRRWAANRYQSGVTGNYWGQGTKVTVSS	high polyreactivity
QVQLQESGGGLVQAGGSLRLSCAASGFIFARNYMGWNRQAPGKERELVAGIGVGASTNYADSVKGRFTISRDNAKNTVYLQINSLEPEDTAVYYCAVGDTVLGYHYYWGQGTQVTVSI	low polyreactivity

Sequence	polyreactivity (PSR sort gate)
QVQVVESGGGLVQAGGSLRLSCAASGSIFTYYAMGWYRQAPGKERELVAAINWSGASTYYADSVKGRFTISRDNAKNTVYLQMNSLKPEDTAVYYCAGYGYWGQGTQVTVSS	high polyreactivity
PVQLVESGGGLVQAGGSLLLSCAASGRTFIYYAMGWYRQAPGKERELVAGISRHGGRTYYADSVKGRFTISRDNAKNTVYLQMNSLKPEDTAVYYCNAYPPSGHDYWGQGTQVTVSS	high polyreactivity
QVQLVESGGGLVQAGGSLRLICAASGLTYVSYAMGWYRQAPGKERELVAGITSGGGTTDYADSVKGRFTISRDNAKTTVYLQMNSLTPEDTAVYDCNARSVYDGFWYNYWGQGTQVTVSS	high polyreactivity
QVQNVDSGGGLVQAGGSLRLSCPPSGISYRGYAMGWYRQAPGKERELVAAISVRGASTYYAASVKGRFTISRDNAKYTVYLPMNSLKPEDTAVYYCGATRPSWRYNYWGQGTEVTVSS	high polyreactivity
QVQLVESGGGLVQAGCSLRISCAASGSTFYINAMGWYRQAPGKERELVAAISRGGSTYYADSVKGRFTISRDNAKNTVYLQMNSLKPEDTAVYYCAADFSRSYRFNYWGQGTQVTVSS	high polyreactivity
QDQLVESGGGLVQAGGSLRLSCAASGFIYFQYAMGWYRQAPGKERELVAAISGSGVTTYYADSVKGRFTISRDNAKYTVYLQMNSLKPEDTAVYYCNAALRWKYDWGQGTQVTVSS	low polyreactivity
QVQLVESGGGLVQAGGSLRLSCADSGFTFYLYAMGWYRQAPGKERALVAAITGSGGSKYYADSVKGRFTISRYNAKNTVYLQMNSLKPEDTAVYYCAAVFKDSRYQYGFGYDYWGQGTQVTVSS	high polyreactivity
QVQLVESGGGLVQAGGSLRISCAASGRIFDRYVLGWYRQAPGKERELVAAISSGGSTYYADSVKGRFTISRDNAKNTVYLQMNSLKPEDTAVYYCAADRRSKYDYWGQGTQVTVSS	low polyreactivity
QVQLVESGGGLVQAGGSLRLSCAASGIIFPWYTMGWYRQAPGKERELVAAISSGGRTNYADSVKGRFTISRDNAKNTVYLQMNSLKPEDTAVYYCAAKFYRDRDWGQGTQVTVSS	high polyreactivity
QVQLVESGGGLVQAGGSLRLSCAASGSTFQYYAMGWYRQAPGKERELFAVITGAGGTNYADSVKGRFTISRDNAKNTVYLQMNSLKPEDTAVYYCAARSPGTRWGDYDYWGQGTQVTVSS	low polyreactivity
QVQLVESGGGLVQAGGSLRLSCAASGSTFYRNAMGWYRQAPGKERELVAAISTRGSSTYYADSVKGRFTISRDNAKNTVYLQMNSLKPEDTAVYYCTADGIYPVLKFDYDYWGQGTQVTVSS	low polyreactivity
QVQILESGGGLVQAEGSIRLSCDASGRTFRPYAMGWSRQAPGKDRELVAVISYSGVSTYYADSVKGRFTISRDTEQNNVYLLLNSQIPEDTAVYYCLIRFRKTHYDYWGQGSQVTVSS	high polyreactivity
QVQLVESGGGLVQAGGSHRLSCAASGRTFWYNAMGWYRQAPGKERELVAAITSGDSTNYADSVKGRFTISRDNAKNTVYLQMNSLKPEVTAAYYCAAEGRPNWYYWAEGYYWGQGTQVTVSS	high polyreactivity
QVQLVESGGGLVQAGGSLRLSCAASGSTFIANTMGWYRQAPGKERELVAAITDSGGSTYYADSVKGRFTISRDNAKNTVYLQMNSLKPEDTAVYYCNADYVYVFIRAWSYDYWGQGTQVTVSS	low polyreactivity
QVQLVESGGGLVQAGGSLRLSCAASGSIFLKNVMGWYRQAPGKERELVAAITARGGATYYADSVKGRFTISRDNAKKTVYLQLNSQKPEDTAVYYCAARARVVPSLGNPRMDYWGQGTQVTVSS	high polyreactivity
QVQLVESGGGLVQAGGSLRLSCAASGSTFKSYAMGWYRQAPGKERELVAAINWSGGSTYYADSVKGRFTISRDNAKNTVYLQMTSLKPEDTAVYYCNAVYAVRSYDSWGQGTQVTVSS	high polyreactivity
QVQLVESGGGLVQAGGSLRLSCAASGGTFPYYAMGWYRQAPGKERELVAAISSSGGRTYYADSVKGRFTISRDNAKNTVYLQMNSLKPEDTAVYYCAKDTYGFAANRPAGDGYWGQGTQVTVSS	high polyreactivity
QVQLLESGGGLVQAGGSLRLSCAASVSTFLYYTMGWYRQATGKQRELVAAISDDGSTSYADSVKGRFTISRDNAKITVYLQMNSLKPEDTAVYYCAARFYHNRYTFYDFYTLYPYYYWGQGTQVTVSS	low polyreactivity
QVHLVESGGGLVQAGGSLRLSCAASGIILYGYAMGWYRQAPGKERELVAAITKSGGSTYYADSVKGRFTISRDNAKNTVYLLMNSLKPEDTAVYYCAAKLWGIWYYGYRPDDYWGQGTQVTVSS	low polyreactivity
QDQLEESGVGLLQAGGSLRLSCAASGNTFFVNDMGWYRHAPRKERELLAVISINGDSTFYADSVKGRFTISRDNAKNTVYLQMNSLKPEDTAVYYCAADFRRVFCKYSYYLYFEFDYWGQGTQVTVSS	low polyreactivity
QVQLVEAGGGLVQAGGSLRLSGAASGYTFGGNAMGWYRPAPGKERELVAGITWTGGTTYYADSVKGRFTISRDNAKNTVYLQMNSLKPEETAVYYCNASLDSQDGDYWGQGTQVTVSS	low polyreactivity
